Target: HDM2 (used for surface plasmon resonance and the competitive binding assay) (UniProt Q00987 1-491)
Assay: SPR

Sequence of HDM2 (used for surface plasmon resonance and the competitive binding assay) (Q00987 whole entry): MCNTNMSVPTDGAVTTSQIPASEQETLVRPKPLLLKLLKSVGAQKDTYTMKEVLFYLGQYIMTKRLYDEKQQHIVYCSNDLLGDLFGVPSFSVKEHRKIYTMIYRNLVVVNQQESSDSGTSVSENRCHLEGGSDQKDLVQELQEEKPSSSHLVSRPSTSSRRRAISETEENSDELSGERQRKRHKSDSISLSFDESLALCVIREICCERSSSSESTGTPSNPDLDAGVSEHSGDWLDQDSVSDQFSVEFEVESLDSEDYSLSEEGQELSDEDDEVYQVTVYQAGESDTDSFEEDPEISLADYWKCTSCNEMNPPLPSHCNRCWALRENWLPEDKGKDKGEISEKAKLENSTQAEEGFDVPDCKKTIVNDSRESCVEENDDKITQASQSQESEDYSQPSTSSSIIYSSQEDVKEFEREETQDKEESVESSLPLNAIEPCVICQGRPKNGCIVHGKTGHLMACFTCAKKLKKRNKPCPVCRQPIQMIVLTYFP

Kd: 694 µM
Binder: LWKLLPEDDVLSPLPSQAM (isoaspartate at 29 and 30) [p53 peptide (amino acids 22-40) N29,30IsoD]
